The target in assay [1] is colE of designed pair 6 (cognate colE of Im^des6). Nature of the assay: SPR; two-state reaction fit. (Surface plasmon resonance follows binding to a sensor surface in real time, without labels.)
Assay [2] shares this target. Nature of the assay: SPR; two-state reaction fit, koff1.
Assay [3] has the same target. Put plainly: SPR; two-state reaction fit, koff2.
Assay [4] has as its target T1, Im^des3.
T1 chain: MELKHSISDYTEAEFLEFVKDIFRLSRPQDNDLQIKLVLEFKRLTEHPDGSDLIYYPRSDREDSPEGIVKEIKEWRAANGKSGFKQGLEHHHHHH
Nature of the assay: SPR.

Assay [5] deals with T2, Im^wt2 (Escherichia coli, UniProt P04482 1-86).
T2 chain: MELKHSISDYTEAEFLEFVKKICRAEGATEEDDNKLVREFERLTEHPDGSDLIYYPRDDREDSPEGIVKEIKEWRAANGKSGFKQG
Nature of the assay: SPR.

In assay [6] the target is T3, Im^des8.
T3 chain: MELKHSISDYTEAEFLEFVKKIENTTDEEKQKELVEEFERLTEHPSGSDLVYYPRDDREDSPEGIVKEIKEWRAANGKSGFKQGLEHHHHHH
Nature of the assay: SPR.

Assay [7] concerns the target T4, Im^des7.
T4 chain: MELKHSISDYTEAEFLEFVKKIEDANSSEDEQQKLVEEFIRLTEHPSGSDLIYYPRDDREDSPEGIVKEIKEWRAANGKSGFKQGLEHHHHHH
Nature of the assay: SPR; two-state reaction fit, koff1.

For assay [8], the target named is T4, Im^des7. Put plainly: SPR; two-state reaction fit, koff2.
Assay [9] has as its target colE of designed pair 5 (cognate colE of Im^des5). Put plainly: SPR; two-state reaction fit.
Assay [10] shares this target. Put plainly: SPR; two-state reaction fit, koff1.
Assay [11] has the same target. Nature of the assay: SPR; two-state reaction fit, koff2.
The target of assay [12] is colE^des2. Put plainly: SPR.
In assay [13] the target is colE^des8. Put plainly: SPR.
Assay [14] concerns the target T2, Im^wt2. Put plainly: SPR.
The target of assay [15] is T2, Im^wt2. Put plainly: SPR.
Assay [16] has as its target T2, Im^wt2. Put plainly: value from previous stopped-flow measurements.
For assay [17], the target named is colE^des1. Put plainly: SPR.

B1: Im^des6 (designed binder)
chain: MELKHSISDYTEAEFLEFVKKIFSQGRLEETRPLVEEFERLTEHPDGSDLVYYPRDDREDSPEGIVKEIKEWRAANGKSGFKQGLEHHHHHH
In [1], B1 registered an equilibrium dissociation constant (Kd) of 161 nM. The koff was found to be 0.29 s⁻¹ in [2] and 0.00026 s⁻¹ in assay [3].

B2: colE^des3 (designed binder)
chain: MESKRNKPGKATGKGKPVGDKWLDDAGKDSGAPIPDRIADKLRDKEFKNFDDFRKKFWKEVAKDPDLAKQFSKANQRNIKDGNAPFARESDQVGGRTTYELHHDKPISQDGGVYDMNNIRVTTPKRAIDIHRGK
Molecule B2 came in with a koff in [4] of 0.019 s⁻¹. The Kd in assay [5] and in [6] was over 100 µM throughout.

B3: colE^des7 (designed binder)
chain: MESKRNKPGKATGKGKPVGDKWLDDAGKDSGAPIPDRIADKLRDKEFKNFDDFRKKFWEEVSKDPDLAKQFKRSNRKRIQQGYAPFAPQKDQVGGRTTFELHHDKPISQDGGVYDMNNIRVTTPKRAIDIHRGK
Take B3: the koff was 0.014 s⁻¹ in assay [7] and 0.0014 s⁻¹ in assay [8].

B4: Im^des5 (designed binder)
chain: MELKHSISDYTEAEFLEFVKKICNTDNENVQFKLVTEFERLTEHPDGSDLIYYPRDDREDSPEGIVKEIKEWRAANGKSGFKQGLEHHHHHH
For B4, the affinity in assay [9], expressed as Kd, was 35 nM. The results for the koff in assay [10] and in assay [11] were 0.023 s⁻¹ and 0.0011 s⁻¹, respectively.

B5: Im^des2 (designed binder)
chain: MELKHSISDYTEAEFLEFVKKIYNSTDEEKQKELVTEFERLTEHPSGSDLIYYPRDDREDSPEGIVKEIKEWRAANGKSGFKQGLEHHHHHH
In [12], B5 yielded a Kd of 0.32 nM and a koff of 0.00041 s⁻¹.

B6: Im^des4 (designed binder)
chain: MELKHSISDYTEAEFLEFVKKIDLASSGGGGNELLSRALVEEFERLTEHPDGSDLIYYPRDDREDSPEGIVKEIKEWRAANGKSGFKQGLEHHHHHH
B6 came in with a Kd in assay [13] of over 100 µM.

B7: colE^wt2 (His127Ala) (enzyme)
chain: MESKRNKPGKATGKGKPVGDKWLDDAGKDSGAPIPDRIADKLRDKEFKNFDDFRKKFWEEVSKDPDLSKQFKGSNKTNIQKGKAPFARKKDQVGGRERFELHHDKPISQDGGVYDMNNIRVTTPKRAIDIHRGK
Take B7: in assay [14], the koff was found to be 0.00016 s⁻¹. Further, the Kd in assay [15] was under 0.1 nM; in assay [16], 0.004 pM.

B8: Im^des1 (designed binder)
chain: MELKHSISDYTEAEFLEFVKKIYSKGKLDQKLRWVEEFVRLTEHPSGSDLIYYPRDDREDSPEGIVKEIKEWRAANGKSGFKQGLEHHHHHH
Regarding B8, the koff in assay [17] was 0.00033 s⁻¹.

For orientation: Kd means the constant that tells how readily two partners part at equilibrium. In general, koff refers to a measure of how fast the partners let go of each other. Higher therefore signals fast dissociation.

(Values after publication PMC6290019 (2018).)
